# Data from patent US20170022277A1 (NATIONAL RESEARCH COUNCIL OF CANADA, published 2017).
# Target: T1, recombinant human IGF1R extracellular fragment IGF1R^933-His (human, UniProt P08069 31-933)
# T1 construct: It holds the full alpha subunit, the furin site RKRR and most of the extracellular part of the beta subunit; Amine-coupled to a CM5 chip for SPR; also called recombinant extracellular portion of the human IGF1R fragment; not shown: His tag from pCDN4/myc-His vector
# Assay: SPR (BIACORE 3000), human IGF1R immobilized on CM5, 1:1 model
# Description: Approximately 3000 Resonance Units (RU) of recombinant human IGF1R were immobilized on a Sensor chip CM5. Immobilization was carried out at a concentration of 10 μg/ml in 10 mM acetate at pH4.0 using the amine coupling kit supplied by the manufacturer. The remaining binding sites were blocked with 1 M ethanolamine pH 8.5. An ethanolamine blocked surface was used as a reference surface. For the binding studies, analyses were carried out at 25° C. in 10 mM HEPES, pH7.4 containing 150 mM NaCl, 3 mM EDTA and 0.005% surfactant P20 (Polyoxyethylenesorbitan; GE Healthcare). […] Surfaces were regenerated with 10 mM glycine pH 2.0 with a contact time of 24 seconds. Data were analyzed with BIAevaluation 4.1 software (GE Healthcare).
# T1 sequence (P08069 31-933): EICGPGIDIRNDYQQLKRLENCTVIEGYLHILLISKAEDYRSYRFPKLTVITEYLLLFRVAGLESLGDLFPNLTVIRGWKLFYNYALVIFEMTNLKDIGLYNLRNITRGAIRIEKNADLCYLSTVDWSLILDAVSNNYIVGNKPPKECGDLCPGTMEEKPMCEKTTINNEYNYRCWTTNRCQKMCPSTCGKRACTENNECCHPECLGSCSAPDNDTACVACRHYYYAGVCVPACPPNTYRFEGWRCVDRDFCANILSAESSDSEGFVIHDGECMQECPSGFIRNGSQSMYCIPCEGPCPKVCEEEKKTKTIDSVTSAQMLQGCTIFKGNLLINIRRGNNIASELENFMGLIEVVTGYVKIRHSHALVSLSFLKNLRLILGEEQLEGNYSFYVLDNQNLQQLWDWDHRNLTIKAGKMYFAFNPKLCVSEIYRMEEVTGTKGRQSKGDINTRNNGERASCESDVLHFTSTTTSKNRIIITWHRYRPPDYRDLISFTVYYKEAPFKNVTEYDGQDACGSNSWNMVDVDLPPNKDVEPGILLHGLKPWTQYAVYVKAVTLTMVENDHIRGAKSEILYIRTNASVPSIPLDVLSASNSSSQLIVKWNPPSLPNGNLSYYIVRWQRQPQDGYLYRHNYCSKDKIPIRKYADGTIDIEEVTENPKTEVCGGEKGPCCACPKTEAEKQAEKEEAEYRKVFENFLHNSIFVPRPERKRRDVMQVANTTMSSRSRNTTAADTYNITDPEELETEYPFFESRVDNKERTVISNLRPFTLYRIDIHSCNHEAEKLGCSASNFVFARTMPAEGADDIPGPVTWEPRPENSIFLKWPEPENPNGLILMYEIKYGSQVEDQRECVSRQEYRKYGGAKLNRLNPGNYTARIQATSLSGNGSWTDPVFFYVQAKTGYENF
Binder,Kd,koff
"IGF1R-4_H4 (VHH, Humanized variant of IGF1R-4; expressed from pSJF2H in E. coli and purified by IMAC; any vector tag is not described) VHH: QVQLVESGGGLVQPGGSLRLSCAVSGGTVSPTAMGWFRQAPGKGLEFVGHITWSRGTTRYASSVKGRFTISRDSSKNTVYLQMNSLRAEDTAVYYCAASTFLRILPEESAYTYWGQGTLVTVSS",450 pM,0.00039 s⁻¹
"IGF1R-4_H2 (VHH, Humanized variant of IGF1R-4; expressed from pSJF2H in E. coli and purified by IMAC; any vector tag is not described) VHH: QVQLVESGGGLVQPGGSLRLSCAVSGGTVSPTAMGWVRQAPGKGLEWVGHITWSRGTTRYASSVKGRFTISRDNSKNTVYLQMNSLRAEDTAVYYCAASTFLRILPEESAYTYWGQGTLVTVSS",1070 pM,0.00061 s⁻¹
"IGF1R-4_H5 (VHH, Humanized variant of IGF1R-4; expressed from pSJF2H in E. coli and purified by IMAC; any vector tag is not described) VHH: QVQLVESGGGLVQPGGSLRLSCAVSGGTVSPTAMGWFRQAPGKEREFVGHITWSRGTTRYASSVKGRFTISRDSSKNTVYLQMNSLRAEDTAVYYCAASTFLRILPEESAYTYWGQGTLVTVSS",520 pM,0.00046 s⁻¹

# Binders with a lower Kd, results first:
Kd,koff,Binder
390 pM,0.00034 s⁻¹,"IGF1R-4_H3 (VHH, Humanized variant of IGF1R-4; expressed from pSJF2H in E. coli and purified by IMAC; any vector tag is not described) VHH: QVQLVESGGGLVQPGGSLRLSCAVSGGTVSPTAMGWFRQAPGKGLEFVGHITWSRGTTRYASSVKGRFTISRDNSKNTVYLQMNSLRAEDTAVYYCAASTFLRILPEESAYTYWGQGTLVTVSS"
320 pM,0.00029 s⁻¹,"IGF1R-4 VHH (VHH, Llama VHH, monomeric; Expressed from pSJF2H in TG1 E. coli and purified by IMAC; also called anti-IGF1R VHH IGF1R-4) VHH: QVKLEESGGGLVQAGGSLRLSCEVSGGTVSPTAMGWFRQAPGKEREFVGHITWSRGTTRVASSVKDRFTISRDSAKNTVYLQMNSLKSEDTAVYYCAASTFLRILPEESAYTYWGQGTQVTVSS"

# Target: T2, recombinant human Insulin Receptor (R&D systems) (human, UniProt P06213-2 28-944, limits assumed)
# T2 construct: extracellular domain; Bought protein; About 4000 RU immobilized on a CM5 chip; also called IR; recombinant extracellular portion of the human Insulin Receptor
# Assay: SPR, IGF1R-4 VHH (0.5 - 50nM) over immobilized recombinant human Insulin Receptor
# T2 sequence (P06213 other isoform, or with tags, fused parts or gaps limits assumed): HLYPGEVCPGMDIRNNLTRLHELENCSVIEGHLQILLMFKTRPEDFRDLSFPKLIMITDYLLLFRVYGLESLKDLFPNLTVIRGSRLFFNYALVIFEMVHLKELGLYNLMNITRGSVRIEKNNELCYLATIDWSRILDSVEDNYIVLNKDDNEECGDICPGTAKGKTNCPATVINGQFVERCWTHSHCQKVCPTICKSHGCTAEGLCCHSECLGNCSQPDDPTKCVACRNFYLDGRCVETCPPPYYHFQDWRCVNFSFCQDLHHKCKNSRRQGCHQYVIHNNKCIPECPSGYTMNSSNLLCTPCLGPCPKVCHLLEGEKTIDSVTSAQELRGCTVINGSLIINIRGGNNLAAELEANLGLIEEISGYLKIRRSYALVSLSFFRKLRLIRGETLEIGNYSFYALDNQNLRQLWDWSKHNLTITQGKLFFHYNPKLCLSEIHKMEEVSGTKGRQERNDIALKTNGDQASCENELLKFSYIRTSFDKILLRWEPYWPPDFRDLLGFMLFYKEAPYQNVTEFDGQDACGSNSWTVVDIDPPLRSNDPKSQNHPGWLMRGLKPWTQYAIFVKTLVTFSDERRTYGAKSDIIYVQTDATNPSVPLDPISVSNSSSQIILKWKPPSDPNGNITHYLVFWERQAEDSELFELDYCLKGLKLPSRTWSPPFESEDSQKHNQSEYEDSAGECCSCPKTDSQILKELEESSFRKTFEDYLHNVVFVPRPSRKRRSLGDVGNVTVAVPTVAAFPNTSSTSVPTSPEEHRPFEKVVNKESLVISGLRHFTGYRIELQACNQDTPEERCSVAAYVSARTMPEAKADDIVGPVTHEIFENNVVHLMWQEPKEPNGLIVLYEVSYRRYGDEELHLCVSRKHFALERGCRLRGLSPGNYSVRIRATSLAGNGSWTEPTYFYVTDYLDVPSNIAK
row,binding result,Binder
1,no binding (tested: 50 nM),"IGF1R-4 VHH (VHH, Llama VHH, monomeric; Expressed from pSJF2H in TG1 E. coli and purified by IMAC; also called anti-IGF1R VHH IGF1R-4) VHH: QVKLEESGGGLVQAGGSLRLSCEVSGGTVSPTAMGWFRQAPGKEREFVGHITWSRGTTRVASSVKDRFTISRDSAKNTVYLQMNSLKSEDTAVYYCAASTFLRILPEESAYTYWGQGTQVTVSS"
